Reference: patent publication US20110143963A1 (UNIVERSITY OF CHICAGO, published 2011)
Where no end group is shown, it is not given here.

Tests used:
[1] = target: T1, ARVCF peptide PQPVDSWV-COOH (eight-residue motif corresponding to the ARVCF C-terminus) (not fully specified; printed as PQPVDSWV-COOH); test: SPR (BIAcore)
T1 construct: also called ARVCF target peptide; AVFCF peptide
T1 peptide: PQPVDSWV-OH

[2] = target: T1, ARVCF peptide PQPVDSWV-COOH …; test: SPR, ratio of Kd
[3] = target: T1, ARVCF peptide PQPVDSWV-COOH …; test: SPR (error 13500 stands in r16c7)
[4] = target: T2, target motif GGRSWFETWV-COOH; test: phage display format and SPR
T2 construct: also called target peptide
T2 peptide: GGRSWFETWV-OH
Experimental: From visual inspection of the erbin PDZ structure and a sequence alignment of PDZ domains, three potential sites were identified for the new termini in a circularly permutated PDZ domain. Three mutant PDZ domains, in which four Gly residues were inserted in one of the three candidate sites, were assayed for binding to the target motif using the phage display format.

[5] = target: T3, SUMO-ARVCF fusion protein (yeast); test: SPR, ratio of Kd
T3 construct: also called target peptide fused to the yeast SUMO protein; the target

[6] = target: T3, SUMO-ARVCF fusion protein; test: SPR, equilibrium mode, target peptide fused to yeast SUMO

B1: fusion protein of cpPDZ and FN3 (starting material) (designed binder)
chain: PELGFSISGGVGGRGNPFRPDDDGIFVTRVQPEGPASKLLQPGDKIIQANGYSFINIEHGQAVSLLKTFQNTVELIIVREVGNGAKQEIRVRVEKDGGSGGVSSVPTNLEVVAATPTSLLISWDASSSSVSYYRITYGETGGNSPVQEFTVPGSKSTATISGLKPGVDYTITVYASSSSSSSSSSPISINYRT
- Kd [1]: 25 µM
- Affinity Enhancement (Kd of cpPDZFN for ARVCF / Kd of the clamp) [2]: 1 fold
- Kd [3]: 24.8 µM

B2: circularly permutated PDZ domain (designed binder)
chain: PELGFSISGGVGGRGNPFRPDDDGIFVTRVQPEGPASKLLQPGDKIIQANGYSFINIEHGQAVSLLKTFQNTVELIIVREVGNGAKQEIRVRVEKD
notes: The order would be PDZ residues 21 to C-terminus, Asn-Gly, then residues 1-20; also called cpPDZ
- binding result [4]: binds

B3: peptide-PDZ affinity clamp, clone 282-6 (designed binder)
chain: GSNFCASNGTGNDCRRPELGFSISGGVGGRGNPFRPDDDGIFVTRVQPEGPASKLLQPGDKIIQANGYSFINIEHGQAVSLLKTFQNTVELIIVREVGNGAKQEIRVRVEKDGG
modifications: disulfide-constrained (Cys-constrained) peptide segment
- fold higher affinity than the parent interaction domain (cpPDZ) [5]: 12 fold
- Kd [6]: 0.91 µM
